Measurements taken from article PMC3280250, “Functional Redundancy of Two Pax-Like Proteins in Transcriptional Activation of Cyst Wall Protein Genes in Giardia lamblia”.

T1: Pax2m3 (Giardia lamblia, UniProt A8B733 1-171, del172-302)
T1 sequence: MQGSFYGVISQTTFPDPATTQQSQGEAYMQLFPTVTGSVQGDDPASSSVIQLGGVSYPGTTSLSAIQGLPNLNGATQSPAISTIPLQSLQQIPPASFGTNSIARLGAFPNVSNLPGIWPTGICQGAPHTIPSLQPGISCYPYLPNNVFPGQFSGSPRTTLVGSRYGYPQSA

T2: Pax2 (Giardia lamblia, UniProt A8B733 1-302)
T2 sequence: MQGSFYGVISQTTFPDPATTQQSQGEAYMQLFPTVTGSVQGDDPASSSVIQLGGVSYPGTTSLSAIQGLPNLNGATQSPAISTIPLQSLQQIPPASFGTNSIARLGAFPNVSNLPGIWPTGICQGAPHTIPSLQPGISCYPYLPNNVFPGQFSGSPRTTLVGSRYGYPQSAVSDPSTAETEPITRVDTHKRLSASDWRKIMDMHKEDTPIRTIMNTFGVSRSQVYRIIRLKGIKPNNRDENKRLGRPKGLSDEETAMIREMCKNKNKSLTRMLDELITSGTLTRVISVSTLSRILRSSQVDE

B1: cwp1-45/-1 (dsDNA)
DNA 1: GTTTACAACTCTCAGATCAAGAAACACAGAAATAAAATATCAGGG
DNA 2: CCCTGATATTTTATTTCTGTGTTTCTTGATCTGAGAGTTGTAAAC
B2: ran-51/-20 (dsDNA)
DNA 1: TAAAATAAATTAAATCGAAATTAAAACTTTAA
DNA 2: TTAAAGTTTTAATTTCGATTTAATTTATTTTA
B3: cwp3-30/+10 (dsDNA)
DNA 1: GTCTTTCCCAAAAAATAAGTTACTACTGATATGTTTTCTC
DNA 2: GAGAAAACATATCAGTAGTAACTTATTTTTTGGGAAAGAC
B4: cwp2-30/+8 (dsDNA)
DNA 1: CAGCAGCTCAACAGTGGCTGGGAAAATAAAATGATCGC
DNA 2: GCGATCATTTTATTTTCCCAGCCACTGTTGAGCTGCTG
B5: ran-30/-1 (dsDNA)
DNA 1: TAAAACTTTAACCCAGGAACCGAGAGTAGC
DNA 2: GCTACTCTCGGTTCCTGGGTTAAAGTTTTA
B6: poly(A) with TTT insertion (dsDNA)
DNA 1: AAAAAAAAAATTTAAAAAAAAAA
DNA 2: TTTTTTTTTTAAATTTTTTTTTT
B7: cwp2-60/-31 (dsDNA)
DNA 1: TAGACTGATGCTGTAGAGGTCAACAGATAA
DNA 2: TTATCTGTTGACCTCTACAGCATCAGTCTA
B8: ran-81/-52 (dsDNA)
DNA 1: CAGAAAAAGTTGTCAAGGAGGTGATAGCCG
DNA 2: CGGCTATCACCTCCTTGACAACTTTTTCTG
B9: poly(A) with TC insertion (dsDNA)
DNA 1: AAAAAAAAAAATCAAAAAAAAAA
DNA 2: TTTTTTTTTTGATTTTTTTTTTT
B10: cwp1-90/-46 (dsDNA)
DNA 1: CTGGCTAACAGTCTACAGTCTACAATTTACAGTATACAATCTACA
DNA 2: TGTAGATTGTATACTGTAAATTGTAGACTGTAGACTGTTAGCCAG
B11: poly(A) (dsDNA)
DNA 1: AAAAAAAAAAAAAAAAAAAAAAA
DNA 2: TTTTTTTTTTTTTTTTTTTTTTT
B12: myb2-60/-31 (dsDNA)
DNA 1: TGGCTATGTATTTTTTCTTCTTCTACAGCT
DNA 2: AGCTGTAGAAGAAGAAAAAATACATAGCCA
B13: cwp1-90/-69 (dsDNA)
DNA 1: CTGGCTAACAGTCTACAGTCTA
DNA 2: TAGACTGTAGACTGTTAGCCAG
B14: poly(A) with TT insertion (dsDNA)
DNA 1: AAAAAAAAAAATTAAAAAAAAAA
DNA 2: TTTTTTTTTTAATTTTTTTTTTT
B15: poly(A) with T insertion (dsDNA)
DNA 1: AAAAAAAAAAATAAAAAAAAAAA
DNA 2: TTTTTTTTTTTATTTTTTTTTTT
B16: cwp1-45/-1m11 (dsDNA)
DNA 1: GTTTACAACTCTCAGATCAAGAAACACAGAAAAAAAAAAACAGGG
DNA 2: CCCTGTTTTTTTTTTTCTGTGTTTCTTGATCTGAGAGTTGTAAAC
B17: cwp1-45/-1m9 (dsDNA)
DNA 1: GTTTACAACTCTCAGATCAAGAAACACAGAAATAAAATACGGGGG
DNA 2: CCCCCGTATTTTATTTCTGTGTTTCTTGATCTGAGAGTTGTAAAC
B18: cwp1-45/-1m5 (dsDNA)
DNA 1: GTTTACAACTCTCAGATCAAGAAAGGGAGAAATAAAATATCAGGG
DNA 2: CCCTGATATTTTATTTCTCCCTTTCTTGATCTGAGAGTTGTAAAC
B19: cwp1-45/-1m4 (dsDNA)
DNA 1: GTTTACAACTCTCAGATCGGCGGGCACAGAAATAAAATATCAGGG
DNA 2: CCCTGATATTTTATTTCTGTGCCCGCCGATCTGAGAGTTGTAAAC

What follows are binders tested against T1, Pax2m3 (assay: EMSA; EMSA: 0.02 pmol 5'-32P probe, 5 ng protein, 20 ul, 0.5 ug poly(dI-dC), 15 min at room temperature, 6% acrylamide gel; buffer, salt and pH only by reference [31]). Conditions: protein: recombinant; tags: C-terminal V5-His (pET101/D-TOPO); label: 5'-32P.
B1: no binding.
B2: no binding.
B3: no binding.
B4: no binding.

Each binder was assayed against T2, Pax2 in the same assay as above. Conditions: protein: recombinant; tags: C-terminal V5-His (pET101/D-TOPO).
GTTTACAACTCTCAGATCAAGAAACACAGAAATAAAATATCAGGG (ssDNA) [cwp1-45/-1 single strand 1]: no binding.
B5: no binding.

Same assay, conditions: protein: recombinant; tags: C-terminal V5-His (pET101/D-TOPO); label: 5'-32P
B6: binds.
B7: no binding.
B8: no binding.
B9: binds.
B10: binds.
B2: binds.
B11: binds.
B12: no binding.
B13: no binding.
B14: binds.
B15: binds.

Each binder was assayed against T2, Pax2 (assay: EMSA; unchanged; EMSA: 0.02 pmol 5'-32P probe, 5 ng protein, 20 ul, 0.5 ug poly(dI-dC), 15 min at room temperature, 6% acrylamide gel; buffer, salt and pH only by reference [31]). Conditions: protein: recombinant; tags: C-terminal V5-His (pET101/D-TOPO); label: 5'-32P.
B16: binds.
B17: binds.
B18: binds.
B19: binds.

What follows are binders tested against T2, Pax2 (assay: EMSA; strong binding; EMSA: 0.02 pmol 5'-32P probe, 5 ng protein, 20 ul, 0.5 ug poly(dI-dC), 15 min at room temperature, 6% acrylamide gel; buffer, salt and pH only by reference [31]). Conditions: protein: recombinant; tags: C-terminal V5-His (pET101/D-TOPO); label: 5'-32P.
B3: binds.

Each binder was assayed against T2, Pax2 (assay: EMSA; self-competition and anti-V5 supershift assay confirm specificity; EMSA: 0.02 pmol 5'-32P probe, 5 ng protein, 20 ul, 0.5 ug poly(dI-dC), 15 min at room temperature, 6% acrylamide gel; buffer, salt and pH only by reference [31]). Conditions: protein: recombinant; tags: C-terminal V5-His (pET101/D-TOPO); label: 5'-32P.
B1: binds.
